# The DeepSol protein solubility set
# Experiment: soluble on expression in E. coli; label from the status in PepcDB or PDB records
row,Sequence,soluble on expression in E. coli
1,MPPLPEKVQSHRATPIQSSGVSALPLVEYHAPGSDRLAIMISGDGGWRTLDRNLSKELQRRGISVVGWNSLRYFWKLRTPEQLGDDLSRVIADYQRRWGAHQVILIGYSFGADVMPFAYAHLMPTQRNGVDFISLLALGRKADFKARIFGWLGWGEHGTRDVLTALGALDLHRVQCIYGQNDKDAVCPELRERIFDVVMRPGGHHFDGDTVKLADAILQGWQRRIELREPRNADSPR,not soluble
2,MKAAEHDLLTIELAPRRRDELQIHNKKIAEVDHWLKNVFSESNKQLGVMYLTGPAGSGKSTTVEVMCTEQNIEIIEYSPEYLHNEDFECEKPDFTQLRRFLLRRHGSLRGGGLKKRLLLVTELPDQAYSDAEKFREDLSEVLQHIWHPVIFCLTNSIACWNLNPDRLFTKDFNIMNGIDTVTFNPVADSFMKKALVRASNCLSSPLSDAKLNVIGEEAGGDLRIAMNMLQMNSIGPNADRRSGNSVICASKANREEAFHMIGRILYAKRVNPNVPKPSRFSKRRRKSAPIPEPLVRTELEHDPTDIITMSSMTSEKLLDFLFQNEPIFCSNISKYRYVAETFSMCDFLTGDWTTRKSLPEDYVAQMATRSVMWNNYKEPRPGTLFAVGRPLRSSLEKHTARTKLELQRLPMIGAKDYAALTCPYITIIKDIIDPQRIEYFLSRPMDINWQWGNDKIEEHLEKQYALDYKGRKKHRLPLHKAPKPSGKIIEVVDLEEEEEKFTIEESSDDSFEEF,not soluble
3,NLSVYNVQATNIPPKETLVYTKQTQTT,soluble
4,SLSRISPGNFSTNSYTSTIIKDVRFCLLLCRSLMEGWRITLLNEQEKTIFVDADACPVKDEILQTASEYEVQVLFVASFEHYQLSRSNEEKWKYVDPHKEAADLYIANHVKPGDIVVTQDIGLASLLLNRNVSVMSERGRLYKEDTIDFALEGRHFSGKQRRKGVYAKGPKKLNKEDRERFITLLQKILSNDEGILH,not soluble
5,KPMKILLANPRGFCAGVDRAISIVERALELYQPPIYVRHEVVHNRFVVEGLKQRGARFVEELNEVPDDNIVIFSAHGVSQAVRQEAKERSLTVFDATCPLVTKVHMEVARASRKHMEVVLIGHAGHPEVEGTMGQYASDTGGMYLVEKPEDVVSLQAKVKDPSNLHYVSQTTLSVDETADVIDELRRVFPKIQGPRKDDICYATQNRQDAVRILAEQVDVMVVVGSKNSSNSTRLKELAEKLGTPGYLIDCPQDIDPEWFVDAQLIGVTAGASAPEELVNQILDRIKELGAT,not soluble
6,MVNKEHFSKKFDADLEEIRTRVLQMGGLVEEQIKNAIEALTEGNEHMIEQVIDNDHRVNAMEVKIDELCSQIIVRRQPTAIDLRMIMTVINTITDLERIGDEAAKIARMAKLIYAADRMYTPRFVEIRHIAAIAMDMLRKALDAFARVDPNASAEIVRQDEQVDEEFRSIIRHLVTFMMEDPRKISTAIEILFAAKAVERIGDHAKNMSEYVVYMVKGKDVRHVSADEIEREVGK,not soluble
7,MGSDKIHHHHHHMGPVGYTTLDTAVVERRLGVERLGYRVVGEGYVYRHKYKAGGQRVSTLIGRPEPLDPARVLRVLSAGAYNVVLISPLHGEDDGGLASYIHNNFSAITAVDLQGYYRGYASVWTPPTARIGSLAHISSDDASDPPREPMANIIVYTRGEAGGEVLSPSGSLTIPPPPKLVEDPTGAGDIFTMVFAIMLFRGAPPGPAAEEAAAKTPEILESIRGDEGFQYSVPHSPSEAFWI,not soluble
8,SDPATCPIIPGCETTIEISKGRTGLGLSIVGGSDTLLGAIIIHEVYEEGAACKDGRLWAGDQILEVNGIDLRKATHDEAINVLRQTPQRVRLTLYRDEAPYKEEEVCDTLTIELQKKPGKGLGLSIVGKRNDTGVFVSDIVKGGIADADGRLMQGDQILMVNGEDVRNATQEAVAALLKCSLGTVTLEVGRIKAGPFHSERRPSQSSQVSEGSLSSFTFPLSGSSTSESLESSSKKNALASEIQGLRTVEMKKGPTDSLGISIAGGVGSPLGDVPIFIAMMHPTGVAAQTQKLRVGDRIVTICGTSTEGMTHTQAVNLLKNASGSIEMQVVAGGDVSVVTGHQQEPASSSLSFTGLTSSSIFQDDLGPPQCKSITLERGPDGLGFSIVGGYGSPHGDLPIYVKTVFAKGAASEDGRLKRGDQIIAVNGQSLEGVTHEEAVAILKRTKGTVTLMVLS,soluble
